Patent publication US12534531 (MacroGenics, dated 2026)

What was measured:
[1] = target: T1, biotinylated-soluble human LAG-3-Fc fusion protein (human, UniProt P18627 23-450, biotinylated (site not stated)); experiment: FACS: inhibition of shLAG-3-Fc binding to MHC II on Daudi cells (column head prints EC50); SM; SD 0.0571
T1 construct: whole entry named; also called shLAG-3; shLAG-3-Fc; not shown: Fc
T1 sequence: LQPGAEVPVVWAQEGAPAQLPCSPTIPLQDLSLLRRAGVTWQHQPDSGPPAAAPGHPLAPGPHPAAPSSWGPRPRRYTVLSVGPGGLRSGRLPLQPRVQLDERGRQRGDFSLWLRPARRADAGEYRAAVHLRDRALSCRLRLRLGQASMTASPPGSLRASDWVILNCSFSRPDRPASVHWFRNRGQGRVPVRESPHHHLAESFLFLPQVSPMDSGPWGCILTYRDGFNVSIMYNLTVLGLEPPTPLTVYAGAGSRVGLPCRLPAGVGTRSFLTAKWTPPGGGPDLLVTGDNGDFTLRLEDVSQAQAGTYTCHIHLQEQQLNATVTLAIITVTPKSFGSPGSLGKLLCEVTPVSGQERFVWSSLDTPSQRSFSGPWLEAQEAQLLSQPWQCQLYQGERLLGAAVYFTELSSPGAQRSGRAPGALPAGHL

[2] = target: T2, human PD-1 expressed on the surface of cells (NSO cells expressing human PD-1; MNFAT-luc2/PD-1 Jurkat cells) (human, UniProt Q15116 21-288); experiment: FACS: inhibition of sPD-L2 binding to PD-1 on NSO cells; SM; SD 0.5438
T2 construct: also called cell surface PD-1; PDCD1 transfected NSO cells expressing PD-1
T2 sequence (Q15116 21-288): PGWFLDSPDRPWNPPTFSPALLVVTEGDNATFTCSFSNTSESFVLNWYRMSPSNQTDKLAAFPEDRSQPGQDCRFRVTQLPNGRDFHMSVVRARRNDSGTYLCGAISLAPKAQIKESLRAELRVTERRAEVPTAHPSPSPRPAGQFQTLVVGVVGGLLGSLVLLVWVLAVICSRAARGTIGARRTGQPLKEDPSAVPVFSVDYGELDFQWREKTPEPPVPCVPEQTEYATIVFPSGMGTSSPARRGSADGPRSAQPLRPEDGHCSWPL

[3] = target: T2, human PD-1 expressed on the surface of …; experiment: FACS: inhibition of sPD-L1 binding to PD-1 on NSO cells; SM; SD 0.3097
[4] = target: T2, human PD-1 expressed on the surface of …; experiment: FACS: inhibition of sPD-L1 binding to PD-1 on NSO cells; SM; SD 0.1018
[5] = target: T2, human PD-1 expressed on the surface of …; experiment: FACS: inhibition of sPD-L2 binding to PD-1 on NSO cells; SM; SD 3.6847
[6] = target: T1, biotinylated-soluble human LAG-3-Fc …; experiment: FACS: inhibition of shLAG-3-Fc binding to MHC II on Daudi cells (column head prints EC50); SM; SD 4.9817
[7] = target: T3, human LAG-3 expressed on NSO cells (human, UniProt P18627 29-525); experiment: FACS saturation binding to NSO cells expressing LAG-3; single experiment
T3 sequence: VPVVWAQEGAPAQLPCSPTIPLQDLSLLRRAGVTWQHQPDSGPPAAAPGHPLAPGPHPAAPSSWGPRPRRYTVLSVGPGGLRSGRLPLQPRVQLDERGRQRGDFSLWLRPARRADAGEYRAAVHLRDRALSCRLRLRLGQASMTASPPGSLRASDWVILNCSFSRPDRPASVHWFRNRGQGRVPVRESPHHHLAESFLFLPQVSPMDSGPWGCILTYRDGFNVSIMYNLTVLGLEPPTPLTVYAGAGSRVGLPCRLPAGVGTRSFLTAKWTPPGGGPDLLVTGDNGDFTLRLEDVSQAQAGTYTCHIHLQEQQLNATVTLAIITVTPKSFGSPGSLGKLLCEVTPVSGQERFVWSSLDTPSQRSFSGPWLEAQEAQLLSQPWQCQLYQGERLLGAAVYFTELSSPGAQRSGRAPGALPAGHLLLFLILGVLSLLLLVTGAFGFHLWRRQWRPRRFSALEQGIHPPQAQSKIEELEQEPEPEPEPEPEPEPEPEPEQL

[8] = target: T2, human PD-1 expressed on the surface of …; experiment: FACS saturation binding to NSO cells expressing PD-1; single experiment
[9] = target: T1, biotinylated-soluble human LAG-3-Fc …; experiment: FACS: inhibition of shLAG-3-Fc binding to MHC II on Daudi cells (column head prints EC50); SM; SD 0.2176
[10] = target: T3, human LAG-3 expressed on NSO cells; experiment: FACS saturation binding to NSO cells expressing LAG-3; SM; SD 0.1969
[11] = target: T1, biotinylated-soluble human LAG-3-Fc …; experiment: FACS: inhibition of shLAG-3-Fc binding to MHC II on Daudi cells (column head prints EC50); SM; SD 0.1549
[12] = target: T2, human PD-1 expressed on the surface of …; experiment: FACS saturation binding to NSO cells expressing PD-1; SM; SD 0.4890
[13] = target: T2, human PD-1 expressed on the surface of …; experiment: FACS: inhibition of sPD-L1 binding to PD-1 on NSO cells; SM; SD 0.1302
[14] = target: T2, human PD-1 expressed on the surface of …; experiment: FACS: inhibition of sPD-L2 binding to PD-1 on NSO cells; SM; SD 0.3125
[15] = target: T3, human LAG-3 expressed on NSO cells; experiment: FACS saturation binding to NSO cells expressing LAG-3; SM; SD 0.0547

B1: BSAB A (bispecific antibody)
heavy 1: QVQLVQSGAEVKKPGASVKVSCKASGYSFTSYWMNWVRQAPGQGLEWIGVIHPSDSETWLDQKFKDRVTITVDKSTSTAYMELSSLRSEDTAVYYCAREHYGTSPFAYWGQGTLVTVSSASTKGPSVFPLAPSSKSTSGGTAALGCLVKDYFPEPVTVSWNSGALTSGVHTFPAVLQSSGLYSLSSVVTVPSSSLGTQTYICNVNHKPSNTKVDKRVEPKSCEKTHTCPECPAPEAAGGPSVFLFPPKPKDTLMISRTPEVTCVVVDVSHEDPEVKFNWYVDGVEVHNAKTKPREEQYNSTYRVVSVLTVLHQDWLNGKEYKCKVSNKALPAPIEKTISKAKGQPREPQVYTLPPSREEMTKNQVSLTCEVKGFYPSDIAVEWESNGQPENNYKTTPPVLDSDGSFFLYSKLTVDKSRWQQGNVFSCSVMHEALHNHYTQKSLSLSPG
light 1: EIVLTQSPATLSLSPGERATLSCRASESVDNYGMSFMNWFQQKPGQPPKLLIHAASNQGSGVPSRFSGSGSGTDFTLTISSLEPEDFAVYFCQQSKEVPYTFGGGTKVEIKRTVAAPSVFIFPPSDEQLKSGTASVVCLLNNFYPREAKVQWKVDNALQSGNSQESVTEQDSKDSTYSLSSTLTLSKADYEKHKVYACEVTHQGLSSPVTKSFNRGEC
heavy 2: QVQLVQSGAEVKKPGASVKVSCKASGYTFTNYGMNWVRQAPGQGLEWMGWINTYTGESTYADDFEGRFVFSMDTSASTAYLQISSLKAEDTAVYYCARESLYDYYSMDYWGQGTTVTVSSASTKGPSVFPLAPSSKSTSGGTAALGCLVKDYFPEPVTVSWNSGALTSGVHTFPAVLQSSGLYSLSSVVTVPSSSLGTQTYICNVNHKPSNTKVDKRVEPKSCRKTHTCPRCPAPEAAGGPSVFLFPPKPKDTLMISRTPEVTCVVVDVSHEDPEVKFNWYVDGVEVHNAKTKPREEQYNSTYRVVSVLTVLHQDWLNGKEYKCKVSNKALPAPIEKTISKAKGQPREPQVYTLPPSREEMTKNQVSLTCLVKGFYPSDIAVEWESNGQPENNYKTTPPVLDSDGSFFLYSRLTVDKSRWQQGNVFSCSVMHEALHNHYTQKSLSLSPG
light 2: DIVMTQTPLSLSVTPGQPASISCKSSQSLLHSDAKTYLNWLLQKPGQPPERLIYLVSELDSGVPDRFSGSGSGTDFTLKISRVEAEDVGVYYCWQGTHFPYTFGGGTKVEIKRTVAAPSVFIFPPSDEQLKSGTASVVCLLNNFYPREAKVQWKVDNALQSGNSQESVTEQDSKDSTYSLSSTLTLSKADYEKHKVYACEVTHQGLSSPVTKSFNRGEC
IC50 [1]: 710 nM | IC50 [2]: 4880 nM | IC50 [3]: 2160 nM

B2: DART H (bispecific antibody)
chain 1: EIVLTQSPATLSLSPGERATLSCRASESVDNYGMSFMNWFQQKPGQPPKLLIHAASNQGSGVPSRFSGSGSGTDFTLTISSLEPEDFAVYFCQQSKEVPYTFGGGTKVEIKGGGSGGGGQVQLVQSGAEVKKPGASVKVSCKASGYTFTNYGMNWVRQAPGQGLEWMGWINTYTGESTYADDFEGRFVFSMDTSASTAYLQISSLKAEDTAVYYCARESLYDYYSMDYWGQGTTVTVSSGGCGGGEVAALEKEVAALEKEVAALEKEVAALEKGGGDKTHTCPPCPAPEAAGGPSVFLFPPKPKDTLMISRTPEVTCVVVDVSHEDPEVKFNWYVDGVEVHNAKTKPREEQYNSTYRVVSVLTVLHQDWLNGKEYKCKVSNKALPAPIEKTISKAKGQPREPQVYTLPPSREEMTKNQVSLWCLVKGFYPSDIAVEWESNGQPENNYKTTPPVLDSDGSFFLYSKLTVDKSRWQQGNVFSCSVMHEALHNHYTQKSLSLSPGK
chain 2: DIVMTQTPLSLSVTPGQPASISCKSSQSLLHSDAKTYLNWLLQKPGQPPERLIYLVSELDSGVPDRFSGSGSGTDFTLKISRVEAEDVGVYYCWQGTHFPYTFGGGTKVEIKGGGSGGGGQVQLVQSGAEVKKPGASVKVSCKASGYSFTSYWMNWVRQAPGQGLEWIGVIHPSDSETWLDQKFKDRVTITVDKSTSTAYMELSSLRSEDTAVYYCAREHYGTSPFAYWGQGTLVTVSSGGCGGGKVAALKEKVAALKEKVAALKEKVAALKE
chain 3: not shown
IC50 [4]: 3400 nM | IC50 [5]: 6210 nM | IC50 [6]: 2900 nM | EC50 [7]: 2380 nM | EC50 [8]: 4530 nM | EC90 [8]: 22700 nM

B3: hLAG-3 mAb 1 (1.4) IgG4 (P) (antibody, V domains shown)
VH: QVQLVQSGAEVKKPGASVKVSCKASGYTFTNYGMNWVRQAPGQGLEWMGWINTYTGESTYADDFEGRFVFSMDTSASTAYLQISSLKAEDTAVYYCARESLYDYYSMDYWGQGTTVTVSS
VL: DIVMTQTPLSLSVTPGQPASISCKSSQSLLHSDAKTYLNWLLQKPGQPPERLIYLVSELDSGVPDRFSGSGSGTDFTLKISRVEAEDVGVYYCWQGTHFPYTFGGGTKVEIK
IC50 [9]: 482 nM | EC50 [10]: 1010 nM

B4: DART I (bispecific antibody, human IgG4 S228P)
chain 1: DIQMTQSPSSLSASVGDRVTITCRASQDVSSVVAWYQQKPGKAPKLLIYSASYRYTGVPSRFSGSGSGTDFTLTISSLQPEDFATYYCQQHYSTPWTFGGGTKLEIKGGGSGGGGQVQLVQSGAEVKKPGASVKVSCKASGYSFTSYWMNWVRQAPGQGLEWIGVIHPSDSETWLDQKFKDRVTITVDKSTSTAYMELSSLRSEDTAVYYCAREHYGTSPFAYWGQGTLVTVSSGGCGGGEVAACEKEVAALEKEVAALEKEVAALEKESKYGPPCPPCPAPEFLGGPSVFLFPPKPKDTLYITREPEVTCVVVDVSQEDPEVQFNWYVDGVEVHNAKTKPREEQFNSTYRVVSVLTVLHQDWLNGKEYKCKVSNKGLPSSIEKTISKAKGQPREPQVYTLPPSQEEMTKNQVSLTCLVKGFYPSDIAVEWESNGQPENNYKTTPPVLDSDGSFFLYSRLTVDKSRWQEGNVFSCSVMHEALHNHYTQKSLSLSLG
chain 2: EIVLTQSPATLSLSPGERATLSCRASESVDNYGMSFMNWFQQKPGQPPKLLIHAASNQGSGVPSRFSGSGSGTDFTLTISSLEPEDFAVYFCQQSKEVPYTFGGGTKVEIKGGGSGGGGQVQLVQSGAEVKKPGASVKVSCKASGYTFTDYNMDWVRQAPGQGLEWMGDINPDNGVTIYNQKFEGRVTMTTDTSTSTAYMELRSLRSDDTAVYYCAREADYFYFDYWGQGTTLTVSSGGCGGGKVAACKEKVAALKEKVAALKEKVAALKE
IC50 [11]: 486 nM | EC50 [12]: 1320 nM | IC50 [13]: 836 nM | IC50 [14]: 1290 nM | EC50 [15]: 532 nM
